Assay results as given in the DeepSol protein solubility set.

Test: soluble on expression in E. coli; label from the status in PepcDB or PDB records

Row | Sequence | soluble on expression in E. coli
1 | MKNYHDIVLALAGVCQSAKLVHQLATESRADSETFLTALNSLFITQPQRIEDVFGGEVRHLKLGLETLIHQLNAQGDQNLTRYWLSLLALEGKLSKNSDAKQTLGNRISRLKEQEIHYARDSETMLSIMANIYSDIISPLGKKIHILGSPDYLRQELVQNKIRAVLLAGIRSAVLWKQMGGTKWQILFFRRKLLATAKQIYSSIY | not soluble
2 | MGSDKIHHHHHHMSDAAIAQDLAALAAQLQTLAGLQGKRDIQAAAASLPHRPFPKLGLAAALGDDAALLPATANRLLFACEGIHPDLVAEDPWFAGWSGVLVNLSDIAAMGGRPIAVVNSLWSRDRQHADQVFAGLQFAAEKFGIPIVGGHSNLQSPYSALSVAVLGQVGPHVLSARSAQAGDRCYLLINRDGQFYRHYPFWDAATGTAPEQLRRHWELMAQLADAGLVSAAKDVSMGGLIGTAVMFAETSGAGLDLHLDRLSYPAGVSRDRWLTCFPSFGFLLAVPEACCDRFLQRVATEPDLTCDHLGSFTNTGQVRLCDRQAQVCFWDCQEQSLMGFSALTDPESPH | not soluble
3 | IKATYETFSSPNGHGEGRGYLVMPQKKTIKSPTVLVIHENRGLNPYIKDVARRLAKDGFIAFAPDALYPLGGYPGNDDEGRAMQKEMDRAKIEQDFIAAAKFIKQHEHGNGK | not soluble
4 | KQNSLMGITGGLTARYISEKYFAMICGAQVELNISQRGWDELFEVPGENGEPVEDPTRKYTRKMTYLDIPFLAHLAFGNEKGLQFFINAGPQIGLLIGESESMENIDMNALTDTQKAVYGDKIQNKFDYGIAGGGGIEFRTKKAGSFLLEGRYYFALSDFYSTTKKDYFSRAAHGTITVKLTYLFDLK | not soluble
5 | MEEDIVRLFYKGSEIILIGTSHISAESADLVRKTIQEENPDTICIEWDQKRYKKNIHPDEWDDTDIVKIIKNKQFPVFIFGVIYKLFQKKVSQDMNSLVGKEFVVAVDESKKLNIKFYLIDRDSSLTFKRAWRMLNFREKVKLPYAFGKIFEGAEETEEEVQNLLESENFEPVFEELKESYPNLWEVFVTERDDYLATKIQNTANGKTVAVLGKAHLKGVSDRLKNNQKSDLQKLEIIPPKK | not soluble
6 | GPGSMSDVKSKEAGANPAASKSGSGEDVAETKLAVPRSLDTGSKKHPLNSSWTLWYDSLSTYDSERWELSLVEVITVRTVEEFFTMLHYCKPPHVLRVSAQYHFFREGVKPMWEDPSNKAGGKLWISLDDKPVGDVGGRKWENANTGGAAGGEKDNASAATNNSNSNQNAKAKKEEQETEKKPELDTMWENLLMAMVGEYLDPEPDGDHIMGLVLSRRKYHNRIALWLRDASASEAVARIEKKLVKEAGLPPAMKFIFTPHSTGK | soluble
7 | MSLKALVLTGTKQFEMQDVTTPTVKDDEVLVNTAYAGICGTDRALYAGLPGSADAVPPIVLGHENSGIVAAIGRNVTNVKVGDRVTVDPNIYCGECEYCRTDRPELCDNLSAVGVTRDGGLEESFTAPASVVYPIPDSVSLKAAATVEPISCAVHGVKLLDLTPYQKALVIGDGFMGQLFVQLLQAYGVHQVDFAGIVDEKLAFNKEKFGVTNTYNTTRDSIPADYDVVIEAVGLPQTQEQAVEATKKGAQVLMFGVGKPNQTFSMNTYEVYQKQLKIQGAFINPYAFEDSIALLASGQLDVESLISHEVSLEQVEDVLNGKVEHVSKAVVKVSEGHHHHHH | soluble
8 | GVFTFEDEINSPVAPATLYKALVTDADNVIPKALDSFKSVENVEGNGGPGTIKKITFLEDGETKFVLHKIESIDEANLGYSYSVVGGAALPDTAEKITFDSKLVAGPNGGSAGKLTVKYETKGDAEPNQDELKTGKAKADALFKAIEAYLLAHPDYN | soluble
9 | MSLRAQSTNTIGVLVSRISNPFFAQLFDALERELNGYGFQVMVMQTHDDALAEQHFLDKLKQQQVDGVILASIENQQLVAQLSATYANQMVLLNEEATDIGIPMISLNHYQATKDALAYLYHQGHRRIAYATGGDFPSTHHGRSRTQAYLDFCEEQQLVVNNNWVFAQQHTIADGQALGKQLASLNPSDRPTAVFTNSDEVAVGVIDELQQQHFRVPDDMAVMGYDDQPFAAVAQVPLTTVRQPVAAMAQLAVDQLLHHLGRLQRPELAIDLSLDLIKRKSAEGHHHHHH | soluble
10 | MFTIKTDDLTHPAVQALVAYHISGMLQQSPPESSHALDVQKLRNPTVTFWSVWEGEQLAGIGALKLLDDKHGELKSMRTAPNYLRRGVASLILRHILQVAQDRCLHRLSLETGTQAGFTACHQLYLKHGFADCEPFADYRLDPHSRFLSLTLCENNELP | soluble
11 | MAGDPMTIYEQHFIFSDRIVPIRVRENKYARRLILRIDARGREICVTTPPAINLYSIQGFIAKHQSWIEARLARVQIAHANSYLKEGTKIPLLGIPHTIQRKEGRGITEIVAGDVRQEPKIVVYGQLEYLPRRIADVLKKQAALIITPLVKCYARKVERKVKSICYKDTKSRWGSCSIHGNLSFSWRLVMAPQEVIEYVVAHEVAHLIEMNHGPKFWALCEKLCPKSEAYRTWLKENGHMLQAVNFHSYRLEILEHHHHHH | soluble
12 | MGSDKIHHHHHHMTSALSEAGGYPPEGQGAYFLCDIFDAMPKNDLASMEHPLFSLSTRPDRRILNYEHNGAEITVTPSVKGLATIHDKDILIFCVSQLMAALNAGRQVSRVLHLTAHDLLVACNRETSGDAYRRLRESFERLAGTRITTNITTGGQEITTGFGLIESWEIVRKARGGRMVSVAVTLSDWLYRAVLSKSVLTLSRDYFRLRKPLERRIYELARKHCGRQDSWQISVETLLKKSGSASPRRVFRKMVRDMIESQPLPDYEMAELEGDIIRFSQKAAVVDVPPPVISEAARDEARRLMPGVDVHALEADWRATWARTGAPRLRKPDAAFVGWVRKRMND | not soluble
13 | MPTKLSNKYHDEIEQNGFTVVRNFLSPQEIEKYTKASEALVQYARDGNWPHVRTRGKQFPPWPKNFSPDIWGVSGLLHPDLGELSKPFHDLYSDEKLLNVVCDILLIEKTDLSMELLNMLINPLTDFELDWHRDTIKPEVTPEEEAEDLLKFPYAGAQFNLALTEDDCLIAIPGSHNRVRTTEEREKTIDPNRRKEFITGEIRVQLQPGDLVFYNNNILHRAAYSSKNKRLTLHGSYGNVNQGKSRAKGILQHGVAEWLPRLETKNTNLKMLQEKLLNLAKEFEGVELGYALDG | soluble
14 | MNVPFWTEEHVRATLPERDAESHKGTYGTALLLAGSDDMPGAALLAGLGAMRSGLGKLVIGTSENVIPLIVPVLPEATYWRDGWKKAADAQLEETYRAIAIGPGLPQTESVQQAVDHVLTADCPVILDAGALAKRTYPKREGPVILTPHPGEFFRMTGVPVNELQKKRAEYAKEWAAQLQTVIVLKGNQTVIAFPDGDCWLNPTGNGALAKGGTGDTLTGMILGMLCCHEDPKHAVLNAVYLHGACAELWTDEHSAHTLLAHELSDILPRVWKRFELEHHHHHH | soluble
15 | MKLEIGYNHPFEIRKERYESDHVCNFSVLYISDLHLTVFSKDICTRLSKCIQELNPTIIILGGDYIDCRNGWDYLSTFFKFLSARKNVFSIAGNHDYFYGIDEIKKLIESNNIHWLENQSAVVNIQEYNILLTGNNETQSSIPADFNILCLHKPVSLDAFKIPYHIAFAGHLHGCQCVFWQNENGLYPGRFFYTFNFLRRQVKNCLYLISKGLGDTLPIRFNCKKDIIFVEIKNNSNKLEHHHHHH | not soluble
16 | MGSDKIHHHHHHMPTTMTTNIKNNDFKDVVFNRQSVRQFDPTVKIDREELQTIIDETISAPSACNLQSWHFVVADSADGKAKAKSVLMPFNYPQIDSCSAMIFVLGDTQSHLVYRDVWNKACEEGRITPEKRDQIFKTFLPMYENASPEFLQADAMIDSSMAAMQLLLIARAHGYDANPIAGYAADKVATTFGLDAKRYVPVMAIALGKAASEPITTTRYAGTQVTEFI | not soluble
17 | MAHHHHHHMLCAGKGRVEATQDVARQFLRKCVERLEKNEKDMAVKFDITMTMVSLRCADQCCDLLKPGASYEKMMMGSSPVYGPCLLGLETKVHKTASECVSSFDAGLKNAKEDKEIVAAFFVLKTIKKTGAEEEVHLSSLCIALCGETVAHKTDIRDKAASSPHRLFRYAVDGACVTVSGLWIVSKDVDAREGLEVERKMREVKNQPPRSGNVKRFVDYTYKEIMRQKEKLESATGSEKKTREAQIERMEEMVKDAKELLTSPENTRPKGYSMGR | not soluble
18 | MSASAPAAEGEGTPTQPASEKEPEMPGPREESEEEEDEDDEEEEEEEKEKSLIVEGKREKKKVERLTMQVSSLQREPFTIAQGKGQKLCEIERIHFFLSKKKTDELRNLHKLLYNRPGTVSSLKKNVGQFSGFPFEKGSVQYKKKEEMLKKFRNAMLKSICEVLDLERSGVNSELVKRILNFLMHPKPSGKPLPKSKKTCSKGSKKERNSSGMARKAKRTKCPEILSDESSSDEDEKKNKEESSDDEDKESEEEPPKKTAKREKPKQKATSKSKKSVKSANVKKADSSTTKKNQNSSKKESESEDSSDDEPLIKKLKKPPTDEELKETIKKLLASANLEEVTMKQICKKVYENYPTYDLTERKDFIKTTVKELIS | soluble
19 | MGSDKIHHHHHHMISTANITMQFGSKPLFENVSVKFNNGNRYGLIGANGCGKSTFMKILGGDLEPSAGQVMLEPNTRLGKLRQDQFAYEEFTVIDTVIMGHGQLWKVKAERDRIYSLPEMTEEDGMAVAELETEFAEMDGYTAESRAGELLLGLGIPLEQHFGPMSEVAPGWKLRVLLAQALFSDPDVLLLDEPTNHLDINTIRWLETILTARNSTMIIISHDRHFLNSVCTHMADLDYGELRLFPGNYDEYMTAATQSREQLLSDNAKKKAQIAELQTFVSRFSANASKAKQATSRAKQIDKIQLAEVKPSSRVSPFIRFEQAKKLHRQAVVVEKMAKAFDDKVLFKNFDITVEAGERVAIIGPNGIGKTTLLRTLVGEMTPDAGSVKWTDSAEVGYYAQDHAHDFEDDMTLFDWMGQWTSGEQVIRGTLGRMLFSNDEILKSVKVISGGEQGRMLFGKLILQKPNVLVMDEPTNHLDMESIEALNLALENYPGTLLFVSHDREFVSSLATRIIELSADGVVDFSGTYDDYLRSQGVLV | not soluble
20 | MGTALAAPPLGGCAEGFEVHGGDEEGLPLPTQIDLYLVGLAPLPHHGSRQPVEPPVGHAPVWEGGVYDYSHLIAHPVLPKVGAEPGYAALLPHRLPQQPPSPVPIASRCLDQPTLPPVFCSAQLNLALAGCGWSFMLHPHHVELYTHSLPAEDLSEAWPGSPAITADQLLDVETPFRLQYALHQRRPLQGAAV | soluble
21 | MLLQLAEDRRRLKGVQSTVKKAEIKVELLPKYAAWAEGVLAAGGAQQDDVLMYVMLWRIDAGDYAGALEIGRHALRHGWVMPLGNRNVQTVLAEEMADAAQSAMLATTGFDVDLLLQTLELTDGLDMPDQSRARLHKAIGAVLSESNPASALNHLNHALQLDPRCGVKKDKQQLERRLRNDSR | not soluble
22 | MSLTSRVSGVISTDEIIVILSVFVRYDVEQPSKLDRVRADYNVHYWSQGFFGIDDQGEVYVSPRKDKAHQTQLSSIVKQLEARDLNLPVLVRFPQILHQRVHNICDAFNQAIEEYDYPNKYLLVYPIKVNQQKEVVDEILASQAELEHKQLGLEAGSKPELLAVLAMAQQASSVIVCNGYKDREYIRLALIGEKLGHKVFIVLEKLSELDLVLKEAKSLGVKPRLGLRIRLASQGAGKWQSSGGEKSKFGLAASQVLTVINRLKAENQLEALQLVHFHLGSQMANIRDVRNGVNEAVRFYCELRELGAHIDFFDVGGGLAVDYDGTRSQSSNSMNYGLHEYARNIVSTVSDVCNLYGQPRPVIISESGRSITAHHAVLITNVIGTEAYSPEEIPAPGADAPMLLKNMWRGFEEVQHGTDDRALIEIYNDTQSDLSEAHSQFATGVLNLEHRAWAEQLSLRIYHELRQKMSNKNRFHRPILDELQERLADKFFVNFSLFQSLPDAWGIDQVFPVLPLSGLEEMNDRRAVMLDITCDSDGAVEQYVEGQGIESTLPVPAWTSDKPYLMGFFLVGAYQEILGDMHNLFGDTHSAVVNINDNGESEIAFINEGDTVEDMMRYVHIDVDKIRTNYRQLVSQRVAKEEQETVLAELELGLSGYTYLEDFEGHHHHHH | soluble
